Laboratory results: patent US11957762B2, “Immune tolerant and non-immune tolerant elastin-like recombinant peptides and methods of use” (University of Utah Research Foundation, priority 2015, dated 2024)
Values joined by “and” are separate entries in the source; they are usually repeats but may differ in a detail not shown here. Identical values can stand only once.

Experiments:
[1] = Thermally-induced reversible phase transition (turbidity OD350 vs temperature); assay type: physicochemical
Description: Characterization of thermally-induced, reversible, inverse phase transition of iTEPs and the iTEPB-iTEPA-pOVA fusion. The phase transitions of iTEP or iTEP fusions were characterized by turbidity changes of sample solutions as a function of temperature. Specifically, the optical density at 350 nm (OD350) of a sample solution was monitored using an UV-visible spectrophotometer equipped with a multi-cell thermoelectric temperature controller (Cary 300, Varian Instruments, Walnut Creek, CA) while the solution was heated from 20° C. to 80° C. and then cooled to 20° C. at a rate of 1° C./min. The maximum first derivative of the turbidity curve of a sample was identified. The transition temperature (Tt) of the sample is the temperature that corresponds to the maximum derivative.

C57BL/6 mice = assay: Humoral immunogenicity: IgG titers by ELISA in sera of immunized mice; conditions: mouse, in vivo
Method: Immunization of iTEPs and collection of immune sera. C57BL/6 mice were immunized twice at their right hocks with iTEPs at a dose of 100 μg/mouse. […] At 1 week after the second immunization, 100 μL blood was collected from each immunized mouse. The blood samples were allowed to sit for 30 minutes to one hour at room temperature to clot. Sera were collected from the blood samples after the samples were spun for 10 min at 14,000 rpm at 4° C. The sera were kept at −80° C. before an analysis of the titers of iTEP-specific IgG.
Determination of IgG titers by ELISA. […] Plates were read at OD 450 nm (minus 570 nm for wavelength correction).
The end point titer of a serum IgG was defined as the reciprocal of the higher serum dilution which OD value from the ELISA assay is higher than a statistically valid cutoff. The titer results were expressed as IgG titers (Log 10) for each sample. […] The value of the cutoff was calculated using the following equation:^(31) Cutoff=X+SD t√{square root over (1+(1/n))} where X is the mean absorbance readings of independent PBS control sera, SD is the standard deviation of the readings, n is the number of independent PBS controls (mouse samples), t is the (1−α)th percentile of the one-tailed t-distribution with v=n−1 degrees of freedom.

B1: G(…)21GG (protein)
chain: GVPGLGAGAGVPGLGAGAGVPGLGAGAGVPGLGAGAGVPGLGAGAGVPGLGAGAGVPGLGAGAGVPGLGAGAGVPGLGAGAGVPGLGAGAGVPGLGAGAGVPGLGAGAGVPGLGAGAGVPGLGAGAGVPGLGAGAGVPGLGAGAGVPGLGAGAGVPGLGAGAGVPGLGAGAGVPGLGAGAGVPGLGAGAGVPGLGAGAGVPGLGAGAGVPGLGAGAGVPGLGAGAGVPGLGAGAGVPGLGAGAGVPGLGAGAGVPGLGAGAGVPGLGAGAGVPGLGAGAGVPGLGAGAGVPGLGAGAGVPGLGAGAGVPGLGAGAGVPGLGAGAGVPGLGAGAGVPGLGAGAGVPGLGAGAGVPGLGAGAGVPGLGAGAGVPGLGAGAGVPGLGAGAGVPGLGAGAGVPGLGAGAGVPGLGAGAGVPGLGAGAGVPGLGAGAGVPGLGAGAGVPGLGAGAGVPGLGAGAGVPGLGAGAGVPGLGAGAGVPGLGAGAGVPGLGAGAGVPGLGAGAGVPGLGAGAGVPGLGAGAGVPGLGAGAGVPGLGAGAGVPGLGAGAGVPGLGAGAGVPGLGAGAGVPGLGAGAGVPGLGAGAGVPGLGAGAGVPGLGAGAGVPGLGAGAGVPGLGAGAGVPGLGAGAGVPGLGAGAGVPGLGAGAGVPGLGAGAGVPGLGAGAGVPGLGAGAGVPGLGAGAGVPGLGAGAGVPGLGAGAGVPGLGAGAGVPGLGAGAGVPGLGAGAGVPGLGAGAGVPGLGAGAGVPGLGAGAGVPGLGAGAGVPGLGAGAGVPGLGAGAGVPGLGAGAGVPGLGAGAGVPGLGAGAGVPGLGAGAGVPGLGAGAGVPGLGAGAGVPGLGAGAGVPGLGAGAGVPGLGAGAGGG
Relative Hydrophobicity [1]: High
(heating) Tt ([1]; 5 μM): 50.5 °C
Tt (cooling) ([1]; 25 μM in H2O): 34.00 ± 0.58 °C
Tt (heating) ([1]; 25 μM in H2O): 35.7 °C and 35.70 ± 0.58 °C
humoral immunogenicity (C57BL/6 mice): did not show different immunogenicity
